Data on one substance can be found in patent US20100040606A1.

The target in this assay is RSV protein F (fusion glycoprotein), recombinant or purified (human respiratory syncytial virus, strain not stated) (UniProt P03420). The experiment in a line: SPR (Biacore 3000), Fab over immobilised recombinant antigen. On the technique in general: SPR reads the build-up and loss of mass on a sensor chip optically.

What is called Kd is a measure of binding affinity in units of concentration. For orientation: koff means the rate constant with which the complex falls apart. What is called kon is the second-order rate constant of association.

With “Fab fragment derived from commercially available Palivizumab (Synagis)”, the Kd was found to be 3.78 nM, the koff came out at 0.000757 s⁻¹, the kon was determined as 200000 M⁻¹ s⁻¹ and the t1/2 was 15 min.
